{
  "source": "patent US9539225B2",
  "about": "“Anemia of cancer improving/prophylactic agent” (SBI Pharmaceuticals Co., Ltd., priority 2011, dated 2017)",
  "tested_on": "person suffering from chronic lymphatic leukemia (cancerous anemia)",
  "description": "The white blood cell count, the red blood cell count, the hemoglobin, and the blood platelet count before and after treatment are shown in Table 3 below.",
  "data": [
    {"substance": "Rituxan: anticancer drug used to treat chronic lymphatic leukemia", "values": [
      {"measurement": "White blood cell count", "setting": "2010 Nov. 22, after one cycle of Rituxan begun Nov. 15, 2010, before ALA, 2010 Jan. 13 value 16.48", "result": 1560, "unit": "µL⁻¹"},
      {"measurement": "Anemia as side effect, result in words", "setting": "human, in vivo", "result": "anemia progressed as a side effect"},
      {"measurement": "Blood platelet count", "setting": "human, in vivo", "result": 101000, "unit": "µL⁻¹"},
      {"measurement": "Hemoglobin", "setting": "human, in vivo", "result": 9.20, "unit": "g/dL"},
      {"measurement": "Red blood cell count", "setting": "human, in vivo", "result": "2.8e+06", "unit": "µL⁻¹"}
    ]}
  ]
}
